Holding throughout (assay): EMSA
(A gel shift assay detects complexes by their altered migration in electrophoresis.)

One data set addresses T1, TIA1 WT (Homo sapiens, UniProt P31483 1-386).
T1 sequence: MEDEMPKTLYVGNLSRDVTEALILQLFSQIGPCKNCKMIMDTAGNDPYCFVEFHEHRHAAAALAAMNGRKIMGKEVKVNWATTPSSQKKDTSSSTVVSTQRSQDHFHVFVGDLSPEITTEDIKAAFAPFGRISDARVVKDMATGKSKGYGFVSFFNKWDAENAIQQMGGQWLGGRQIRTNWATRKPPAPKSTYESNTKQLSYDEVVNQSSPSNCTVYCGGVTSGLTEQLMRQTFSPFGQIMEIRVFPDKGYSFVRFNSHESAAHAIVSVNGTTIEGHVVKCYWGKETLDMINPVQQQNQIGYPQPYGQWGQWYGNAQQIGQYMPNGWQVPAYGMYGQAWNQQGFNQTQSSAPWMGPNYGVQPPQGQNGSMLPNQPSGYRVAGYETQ

The target of another data set is PABPC1 WT (Homo sapiens, UniProt P11940 1-636).
Sequence of PABPC1 WT (P11940 whole entry): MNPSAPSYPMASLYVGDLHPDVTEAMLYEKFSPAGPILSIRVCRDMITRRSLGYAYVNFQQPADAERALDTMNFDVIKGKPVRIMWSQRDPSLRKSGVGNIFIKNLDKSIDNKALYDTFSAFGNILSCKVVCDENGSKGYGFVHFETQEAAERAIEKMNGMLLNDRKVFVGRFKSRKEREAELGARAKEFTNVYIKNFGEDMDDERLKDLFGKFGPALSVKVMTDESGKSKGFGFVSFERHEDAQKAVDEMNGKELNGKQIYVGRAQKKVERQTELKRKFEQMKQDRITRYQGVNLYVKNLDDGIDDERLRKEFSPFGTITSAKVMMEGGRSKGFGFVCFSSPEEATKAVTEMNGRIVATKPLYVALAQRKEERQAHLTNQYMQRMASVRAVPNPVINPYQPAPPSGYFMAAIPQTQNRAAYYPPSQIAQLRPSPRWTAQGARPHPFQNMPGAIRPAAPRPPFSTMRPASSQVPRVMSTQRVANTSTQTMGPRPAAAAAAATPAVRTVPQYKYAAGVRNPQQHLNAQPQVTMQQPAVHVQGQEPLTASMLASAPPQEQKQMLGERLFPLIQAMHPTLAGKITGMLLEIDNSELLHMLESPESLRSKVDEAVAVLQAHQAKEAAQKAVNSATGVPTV
For the next data set, the target named is PABPC1 K512R (Homo sapiens, UniProt P11940 1-636, K512R).
Sequence of PABPC1 K512R (P11940 whole entry K512R): as the sequence (P11940 whole entry) above, with K512R counted along it

For CUUUUUUUUUUUUUUUUUUUUUUUUG (ssRNA) [Bio-polyU], the binding result in the data set with TIA1 WT is reported as “binds”.

B1: Bio-A90 (ssRNA)
RNA: GCCUUUCAUCUCUAACUGCGAAAAAAAAAAAAAAAAAAAAAAAAAAAAAAAAAAAAAAAAAAAAAAAAAAAAAAAAAAAAAAAAAAAAAAAAAAAAAAAAAAAAAAAAAA
Consider B1, for which the binding result with PABPC1 WT and in the data set with PABPC1 K512R was “binds” in each case.

The values above are taken from publication PMC12331966.
